Two substances from publication PMC4427307 can be followed below.

The assay concerns the target human insulin (human). In words: BLI; Octet Red, 96-well microplates, 25°C; biotinylated human insulin (12.5-50 μg/ml) immobilised on Streptavidin Biosensors; rSjLD1 (3.5-56 μg/ml) or rSjLD2 (1.78-56 μg/ml) in solution; kinetic buffer (1mM phosphate, 15mM NaCl, 0.1mg/ml BSA, 0.002% Tween-20); association 1000 s, dissociation …; double reference subtraction (BSA negative control and sensor). For orientation: BLI is a label-free optical method that tracks binding on a fibre tip over time.

For “recombinant L1 subdomain of Schistosoma japonicum insulin receptor 1 (SjLD1), expressed in Drosophila S2 cells (domain or fragment)”, the Kd – broadly, the equilibrium constant for the complex coming apart – is 0.0644 µM. On to “recombinant L1 subdomain of Schistosoma japonicum insulin receptor 2 (SjLD2), expressed in Drosophila S2 cells (domain or fragment)”, for which the Kd stood at 0.00878 µM. Compared with the last substance, the Kd is about 7.3-fold lower.
